B1: Subtilisin inhibitor, P01006 (parent)
chain: MRNTGAGPSPSVSRPPPSAAPLSGAALAAPGDAPSALYAPSALVLTVGKGVSATTAAPERAVTLTCAPGPSGTHPAAGSACADLAAVGGDLNALTRGEDVMCPMVYDPVLLTVDGVWQGKRVSYERVFSNECEMNAHGSSVFAF

Variants of: B1
Details: Streptomyces albogriseolus, Thermal, DSC, reversible: yes, structure 3SSI, whole UniProt chain shown; for ddG of mutation (higher = less stable) / unfolding free energy: 53.36 °C

| Variant | Tm (pH 3.2, glycine 25 mM) [°C] | change of melting temperature, mutant - wild type (higher = more stable) (pH 3.2, glycine 25 mM) [°C] | unfolding enthalpy (calorimetric) (pH 3.2, glycine 25 mM) [kcal/mol] | ddG of mutation (higher = less stable) (pH 7, phosphate 25 mM) [kcal/mol] | unfolding free energy (pH 7, phosphate 25 mM) [kcal/mol] | Tm (pH 7, phosphate 25 mM) [°C] | change of melting temperature, mutant - wild type (higher = more stable) (pH 7, phosphate 25 mM) [°C] | unfolding enthalpy (calorimetric) (pH 7, phosphate 25 mM) [kcal/mol] | ddG of mutation (higher = less stable) (pH 9.5, glycine 25 mM) [kcal/mol] | unfolding free energy (pH 9.5, glycine 25 mM) [kcal/mol] | Tm (pH 9.5, glycine 25 mM) [°C] | change of melting temperature, mutant - wild type (higher = more stable) (pH 9.5, glycine 25 mM) [°C] | unfolding enthalpy (calorimetric) (pH 9.5, glycine 25 mM) [kcal/mol] | ddG of mutation (higher = less stable) (pH 3.2, glycine 25 mM) [kcal/mol] | unfolding free energy (pH 3.2, glycine 25 mM) [kcal/mol] |
| --- | --- | --- | --- | --- | --- | --- | --- | --- | --- | --- | --- | --- | --- | --- | --- |
| M104K | 57.1 | 3.71 | 107 | -0.35 | 6.38 | 82.9 | 0.65 | 192 | -0.05 | 6.09 | 80.9 | 0.17 | 188 | – | – |
| M104A | 55 | 1.66 | 101 | -0.55 | 6.58 | 83.4 | 1.16 | 183 | -0.13 | 6.17 | 80.9 | 0.18 | 178 | -0.54 | 6.09 |
| M104D | 56.8 | 3.46 | 98.7 | -1.6 | 7.63 | 85.3 | 3.08 | 182 | -1.25 | 7.29 | 83.3 | 2.59 | 177 | – | – |
| M104L | 52.9 | -0.43 | 108 | 0.25 | 5.78 | 81.8 | -0.46 | 193 | 0.55 | 5.49 | – | – | – | 0.13 | 5.42 |
| M104G | 52.7 | -0.7 | 106 | 0.06 | 5.97 | – | – | – | 0.49 | 5.55 | 79.8 | -0.87 | 186 | – | – |
| M104E | 54.3 | 0.98 | 103 | -1.05 | 7.08 | 84.2 | 1.99 | 185 | – | – | – | – | – | -0.35 | 5.9 |
| M104V | – | – | – | 0.66 | 5.37 | 81 | -1.17 | 193 | 0.95 | 5.09 | 79 | -1.75 | 189 | 0.46 | 5.09 |
| M104I | – | – | – | 0.94 | 5.09 | 80.4 | -1.78 | 193 | – | – | 78.3 | -2.42 | 189 | 0.73 | 4.82 |

From FireProtDB (doi:10.1006/jmbi.1995.0325)
